One assay concerns the target T1, SMPD4 (human, UniProt Q9NXE4 1-866, limits assumed).
T1 sequence (looked up): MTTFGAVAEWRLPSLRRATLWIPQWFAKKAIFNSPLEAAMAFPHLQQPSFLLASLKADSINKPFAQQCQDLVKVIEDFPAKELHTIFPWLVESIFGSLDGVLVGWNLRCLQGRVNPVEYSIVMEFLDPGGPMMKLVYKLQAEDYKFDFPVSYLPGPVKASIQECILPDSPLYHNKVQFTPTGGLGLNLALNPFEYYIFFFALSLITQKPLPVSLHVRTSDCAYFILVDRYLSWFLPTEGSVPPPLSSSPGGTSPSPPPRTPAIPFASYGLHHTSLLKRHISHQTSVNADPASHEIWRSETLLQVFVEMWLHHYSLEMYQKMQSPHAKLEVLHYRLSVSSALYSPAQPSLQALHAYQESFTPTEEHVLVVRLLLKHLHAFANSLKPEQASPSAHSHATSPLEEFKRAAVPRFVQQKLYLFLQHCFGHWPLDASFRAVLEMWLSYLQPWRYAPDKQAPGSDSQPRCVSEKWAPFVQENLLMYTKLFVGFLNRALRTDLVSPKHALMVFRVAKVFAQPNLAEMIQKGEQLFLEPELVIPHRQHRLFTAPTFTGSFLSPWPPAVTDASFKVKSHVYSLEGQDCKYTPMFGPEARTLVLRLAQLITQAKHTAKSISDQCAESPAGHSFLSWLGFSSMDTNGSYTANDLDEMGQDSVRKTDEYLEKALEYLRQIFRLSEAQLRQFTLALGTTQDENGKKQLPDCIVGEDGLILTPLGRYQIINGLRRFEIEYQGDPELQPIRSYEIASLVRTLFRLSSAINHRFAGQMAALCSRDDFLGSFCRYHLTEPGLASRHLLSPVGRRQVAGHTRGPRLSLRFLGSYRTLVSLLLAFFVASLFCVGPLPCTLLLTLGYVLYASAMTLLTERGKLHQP
The assay is described as follows: IP/MS, LZTR1 wild type-FLAG, U87. Put shortly:
(§1)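 Gel slices were reduced with 5 mM DTT, alkylated with 11 mM IAA and digested overnight at 37° C. with trypsin. Peptides were analysed on an Orbitrap Fusion Tribrid by LC-MS/MS.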

Another assay deals with T2, SBNO2 (human, UniProt Q9Y2G9 1-1366, limits assumed).
T2 sequence (looked up): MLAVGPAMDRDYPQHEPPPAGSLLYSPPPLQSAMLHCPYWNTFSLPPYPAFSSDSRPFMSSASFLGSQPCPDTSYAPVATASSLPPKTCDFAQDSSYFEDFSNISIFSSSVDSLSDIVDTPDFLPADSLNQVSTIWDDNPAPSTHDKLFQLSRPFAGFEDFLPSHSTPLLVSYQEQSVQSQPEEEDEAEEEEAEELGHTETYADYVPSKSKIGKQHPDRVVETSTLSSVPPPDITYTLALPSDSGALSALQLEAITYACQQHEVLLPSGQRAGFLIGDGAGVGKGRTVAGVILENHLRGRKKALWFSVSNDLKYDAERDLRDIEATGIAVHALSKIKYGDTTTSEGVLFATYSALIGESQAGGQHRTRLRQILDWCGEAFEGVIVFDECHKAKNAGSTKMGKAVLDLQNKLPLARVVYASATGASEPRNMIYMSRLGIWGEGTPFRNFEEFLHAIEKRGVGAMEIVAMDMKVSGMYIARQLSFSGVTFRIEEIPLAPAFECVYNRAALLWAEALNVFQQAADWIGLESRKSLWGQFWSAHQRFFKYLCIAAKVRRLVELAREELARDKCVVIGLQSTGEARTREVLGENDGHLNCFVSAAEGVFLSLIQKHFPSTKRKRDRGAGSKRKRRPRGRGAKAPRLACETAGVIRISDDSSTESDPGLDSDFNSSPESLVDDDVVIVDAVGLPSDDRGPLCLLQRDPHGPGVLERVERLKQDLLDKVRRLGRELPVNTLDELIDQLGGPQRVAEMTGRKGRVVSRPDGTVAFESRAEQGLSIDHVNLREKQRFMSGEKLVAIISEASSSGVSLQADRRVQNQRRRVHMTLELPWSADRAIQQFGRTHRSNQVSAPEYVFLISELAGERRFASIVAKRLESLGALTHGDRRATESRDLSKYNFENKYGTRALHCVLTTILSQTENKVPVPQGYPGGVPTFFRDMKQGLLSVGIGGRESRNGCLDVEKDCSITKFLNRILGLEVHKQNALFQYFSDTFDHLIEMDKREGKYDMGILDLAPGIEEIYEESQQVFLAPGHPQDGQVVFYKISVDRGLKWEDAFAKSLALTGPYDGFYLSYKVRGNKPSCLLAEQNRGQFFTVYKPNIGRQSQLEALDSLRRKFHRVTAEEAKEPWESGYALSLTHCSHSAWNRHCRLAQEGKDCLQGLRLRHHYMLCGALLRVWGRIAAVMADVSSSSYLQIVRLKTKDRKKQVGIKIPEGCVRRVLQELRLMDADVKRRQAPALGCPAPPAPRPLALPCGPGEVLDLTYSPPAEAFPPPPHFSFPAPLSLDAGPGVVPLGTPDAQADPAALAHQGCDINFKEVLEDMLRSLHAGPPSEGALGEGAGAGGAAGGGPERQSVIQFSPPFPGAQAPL
The assay is described as follows: IP/MS, LZTR1 wild type-FLAG, U87. The method in brief:
as §1

B1: LZTR1-FLAG (other, human, UniProt Q8N653 1-840, looked up)
chain: MAGPGSTGGQIGAAALAGGARSKVAPSVDFDHSCSDSVEYLTLNFGPFETVHRWRRLPPCDEFVGARRSKHTVVAYKDAIYVFGGDNGKTMLNDLLRFDVKDCSWCRAFTTGTPPAPRYHHSAVVYGSSMFVFGGYTGDIYSNSNLKNKNDLFEYKFATGQWTEWKIEGRLPVARSAHGATVYSDKLWIFAGYDGNARLNDMWTIGLQDRELTCWEEVAQSGEIPPSCCNFPVAVCRDKMFVFSGQSGAKITNNLFQFEFKDKTWTRIPTEHLLRGSPPPPQRRYGHTMVAFDRHLYVFGGAADNTLPNELHCYDVDFQTWEVVQPSSDSEVGGAEVPERACASEEVPTLTYEERVGFKKSRDVFGLDFGTTSAKQPTQPASELPSGRLFHAAAVISDAMYIFGGTVDNNIRSGEMYRFQFSCYPKCTLHEDYGRLWESRQFCDVEFVLGEKEECVQGHVAIVTARSRWLRRKITQARERLAQKLEQEAAPVPREAPGVAAGGARPPLLHVAIREAEARPFEVLMQFLYTDKIKYPRKGHVEDVLLIMDVYKLALSFQLCRLEQLCRQYIEASVDLQNVLVVCESAARLQLSQLKEHCLNFVVKESHFNQVIMMKEFERLSSPLIVEIVRRKQQPPPRTPLDQPVDIGTSLIQDMKAYLEGAGAEFCDITLLLDGHPRPAHKAILAARSSYFEAMFRSFMPEDGQVNISIGEMVPSRQAFESMLRYIYYGEVNMPPEDSLYLFAAPYYYGFYNNRLQAYCKQNLEMNVTVQNVLQILEAADKTQALDMKRHCLHIIVHQFTKVSKLPTLRSLSQQLLLDIIDSLASHISDKQCAELGADI
notes: Expressed in HEK 293T, HeLa or U87 cells; used as cell lysate; also called LZTR1 wild type-FLAG; LZTR1 WT; not shown: FLAG tag at the C-terminus
On to B1, for which the binding result with SMPD4 and with SBNO2 was “binds” throughout.

(Values after patent publication US20250262210A1 (TRUSTEES OF COLUMBIA UNIVERSITY IN THE CITY OF NEW YORK, published 2025).)
